From article PMC5727232, “Structural basis for genome wide recognition of 5-bp GC motifs by SMAD transcription factors” come the findings set out here.

The target in data set [1] is T1, Smad4 MH1 domain (Homo sapiens, UniProt Q13485 10-140). The data set is described as follows: EMSA; EMSA: 20 mM Tris pH 7.2, 80 mM NaCl, 2 mM DTT, 7.5 nM Cy5-DNA, 30 min room temperature, gel at 20 C; ITC: Tris pH 7.0, 20 C. To be noted: protein: recombinant; tags: N-terminal His, cleaved (TEV or 3C); label: 5' Cy5; blunt. (In general: In EMSA bound probe runs differently from free probe, usually more slowly.)
T1 sequence (Q13485 10-140): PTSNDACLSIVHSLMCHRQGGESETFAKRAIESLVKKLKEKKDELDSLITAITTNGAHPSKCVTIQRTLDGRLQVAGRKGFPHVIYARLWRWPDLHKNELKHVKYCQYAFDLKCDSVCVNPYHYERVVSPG

Data set [2] deals with T1, Smad4 MH1 domain. The data set is described as follows: X-ray crystallography (3.03 A); Zn2+; EMSA: 20 mM Tris pH 7.2, 80 mM NaCl, 2 mM DTT, 7.5 nM Cy5-DNA, 30 min room temperature, gel at 20 C; ITC: Tris pH 7.0, 20 C. Conditions: protein: recombinant; tags: N-terminal His, cleaved (TEV or 3C); blunt, self-complementary.
The target in data set [3] is T1, Smad4 MH1 domain. The data set is described as follows: X-ray crystallography (2.05 A); Zn2+; EMSA: 20 mM Tris pH 7.2, 80 mM NaCl, 2 mM DTT, 7.5 nM Cy5-DNA, 30 min room temperature, gel at 20 C; ITC: Tris pH 7.0, 20 C. Conditions: protein: recombinant; tags: N-terminal His, cleaved (TEV or 3C); blunt, self-complementary.
In data set [4] the target is T1, Smad4 MH1 domain. The data set is described as follows: NMR; pH 6.3, 100 mM NaCl, 298 K; EMSA: 20 mM Tris pH 7.2, 80 mM NaCl, 2 mM DTT, 7.5 nM Cy5-DNA, 30 min room temperature, gel at 20 C; ITC: Tris pH 7.0, 20 C. To be noted: protein: recombinant; tags: N-terminal His, cleaved (TEV or 3C); blunt.
The target in data set [5] is T1, Smad4 MH1 domain. The data set is described as follows: ITC; EMSA: 20 mM Tris pH 7.2, 80 mM NaCl, 2 mM DTT, 7.5 nM Cy5-DNA, 30 min room temperature, gel at 20 C; ITC: Tris pH 7.0, 20 C. Conditions: protein: recombinant, tags: N-terminal His, cleaved (TEV or 3C), blunt. A general note: Isothermal titration calorimetry measures the heat released or taken up as one component is titrated into another.

In data set [6] the target is T1, Smad4 MH1 domain. The data set is described as follows: EMSA; no nanomolar binding; EMSA: 20 mM Tris pH 7.2, 80 mM NaCl, 2 mM DTT, 7.5 nM Cy5-DNA, 30 min room temperature, gel at 20 C; ITC: Tris pH 7.0, 20 C. To be noted: protein: recombinant; tags: N-terminal His, cleaved (TEV or 3C); label: 5' Cy5; blunt.
The target in data set [7] is T2, Smad3 MH1 domain (Homo sapiens, UniProt P84022 1-141). The data set is described as follows: EMSA; EMSA: 20 mM Tris pH 7.2, 80 mM NaCl, 2 mM DTT, 7.5 nM Cy5-DNA, 30 min room temperature, gel at 20 C; ITC: Tris pH 7.0, 20 C. Conditions: protein: recombinant; tags: N-terminal His-TEV, cleaved; label: 5' Cy5; blunt.
T2 sequence (P84022 1-141): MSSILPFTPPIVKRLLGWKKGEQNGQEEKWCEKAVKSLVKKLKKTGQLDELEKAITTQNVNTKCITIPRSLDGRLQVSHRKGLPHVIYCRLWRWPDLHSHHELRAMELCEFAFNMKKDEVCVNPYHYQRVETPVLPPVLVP
Data set [8] addresses T3, Trichoplax Smad4 MH1 domain (Trichoplax adhaerens, UniProt B3S7S5 1-151).
T3 sequence: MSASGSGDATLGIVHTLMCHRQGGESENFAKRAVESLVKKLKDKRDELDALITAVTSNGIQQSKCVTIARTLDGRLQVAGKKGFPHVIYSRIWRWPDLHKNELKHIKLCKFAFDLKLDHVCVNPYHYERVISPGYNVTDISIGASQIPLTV
The data set is described as above. To be noted: protein: recombinant; tags: N-terminal His-TEV, cleaved; label: 5' Cy5; blunt.

The target of data set [9] is T2, Smad3 MH1 domain. The data set is described as follows: EMSA; text says GC1 oligonucleotide; EMSA: 20 mM Tris pH 7.2, 80 mM NaCl, 2 mM DTT, 7.5 nM Cy5-DNA, 30 min room temperature, gel at 20 C; ITC: Tris pH 7.0, 20 C. To be noted: protein: recombinant; tags: N-terminal His-TEV, cleaved; label: 5' Cy5; blunt.
Data set [10] has as its target T1, Smad4 MH1 domain. The data set is described as follows: NMR; 1 equivalent DNA; pH 6.3, 100 mM NaCl, 298 K; EMSA: 20 mM Tris pH 7.2, 80 mM NaCl, 2 mM DTT, 7.5 nM Cy5-DNA, 30 min room temperature, gel at 20 C; ITC: Tris pH 7.0, 20 C. Conditions: protein: recombinant; tags: N-terminal His, cleaved (TEV or 3C); blunt.

B1: -GGCCGG- (dsDNA)
DNA 1: ATTATTGGCCGGAAAGCA
DNA 2: TGCTTTCCGGCCAATAAT
In the case of B1, the binding result with Smad4 MH1 domain [1] is “binds”.

B2: -GGCCGC- (dsDNA)
DNA 1: ATTAGGCCGCAAAAAAAGCA
DNA 2: TGCTTTTTTTGCGGCCTAAT
In the case of B2, the binding result with Smad4 MH1 domain [1] is reported as “binds”.

B3: GGCCG-XRAY (dsDNA)
DNA 1: ACGGGCCGCGGCCCGT
DNA 2: ACGGGCCGCGGCCCGT
As to B3, the binding result in the data set with Smad4 MH1 domain [2] was “binds”.

B4: GGCGC-XRAY-Smad4 18mer (dsDNA)
DNA 1: ATGCGGGCGCGCCCGCAT
DNA 2: ATGCGGGCGCGCCCGCAT
Regarding B4, the binding result with Smad4 MH1 domain [3] was “binds”.

B5: NMR GGCTGCC duplex (dsDNA)
DNA 1: AGCCGGCTGCC
DNA 2: GGCAGCCGGCT
On to B5, for which, in the data set with Smad4 MH1 domain [4], the binding result is “binds”.

B6: GGCT 16mer (dsDNA)
DNA 1: TGCAGGCTAGCCTGCA
DNA 2: TGCAGGCTAGCCTGCA
In general, Kd refers to a measure of binding affinity in units of concentration. B6: the Kd with Smad4 MH1 domain [5] (self-complementary) came out at 250.5 ± 0.8 nM.

B7: GC2_14 (CCTGGGC) (dsDNA)
DNA 1: AACCTGGGCAATTA
DNA 2: TAATTGCCCAGGTT
Regarding B7, the binding result with Smad4 MH1 domain [6] is on record as “no binding”.

B8: -GGCTGCC- (dsDNA)
DNA 1: GTAACCGGCTGCCGAATG
DNA 2: CATTCGGCAGCCGGTTAC
For the molecule B8, the binding result with Smad3 MH1 domain [7] and in the data set with Smad4 MH1 domain [1] was “binds” throughout.

B9: CAGAC (ITC) (dsDNA)
DNA 1: AGTCAGACGCT
DNA 2: AGCGTCTGACT
Regarding B9, the Kd with Smad4 MH1 domain [5] amounted to 270.5 ± 0.1 nM.

B10: FoxH1 site (dsDNA)
DNA 1: TCTCAATCCACAATC
DNA 2: GATTGTGGATTGAGA
B10: the binding result with Smad4 MH1 domain [6] was “no binding”.

B11: SBE / GTCT (dsDNA)
DNA 1: TGCAGTCTAGACTGCA
DNA 2: TGCAGTCTAGACTGCA
With B11, the Kd in the data set with Smad4 MH1 domain [5] (label: 5' Cy5 in EMSA, self-complementary) was determined as 200.3 ± 0.5 nM.

B12: GC1 core (dsDNA)
DNA 1: TTAAGGCCGGGGCCGCGCCGGGAATT
DNA 2: AATTCCCGGCGCGGCCCCGGCCTTAA
Take B12: in data set [8], the binding result is “binds”. Moreover, the Kd in the data set with Smad3 MH1 domain [9] was about 100 nM.

B13: NMR GGCCGCGCC duplex (dsDNA)
DNA 1: AGGCCGCGCCGA
DNA 2: TCGGCGCGGCCT
B13: the binding result in the data set with Smad4 MH1 domain [10] is recorded as “binds”.
